B1: Nb1 (anti-PEDV N protein nanobody) (VHH)
VHH: QVQLQESGGGSVQSGGSLRLSCAVSGYTYSGLCMGWFRQAPGREREGVATIDTDGYTSYTDSVKGRFTISRDNAKNTLLLQMNSLQPEDTAMYYCAADPRTAIYCSTSRSAKWYNHWGQGTQVTVSS
B2: Nb1 (VHH)
VHH: B1 VHH
notes: VHH from a Bactrian camel immunised with PEDV N protein, selected by phage display

How the values were obtained:
[1] = molecular target: T1, PEDV N protein (recombinant nucleocapsid protein of porcine epidemic diarrhea virus) (Porcine epidemic diarrhea virus, strain …, UniProt Q07499); test: SPR; Biacore 3000; purified PEDV N protein (5 µg/ml) amine-coupled to a CM5 chip; Nb1, Nb2, Nb3 flowed at 3 µg/ml each; HBS-EP (10 mM HEPES pH 7.4, 150 mM NaCl, 3 mM EDTA, 0.005% P20), room temperature; 1:1 Langmuir model; conditions: both partners purified
T1 construct: also called PEDV N antigen; N-His-tagged recombinant protein; source: recombinant, purified ('highly pure')

[2] = molecular target: T2, PEDV N protein (recombinant nucleocapsid protein of porcine epidemic diarrhea virus) (Porcine epidemic diarrhea virus, strain …, UniProt Q07499); test: SPR; Biacore 3000; purified PEDV N protein (5 µg/ml) amine-coupled to a CM5 chip; Nb1, Nb2 and Nb3 each flowed over at 3 µg/ml; HBS-EP (10 mM HEPES pH 7.4, 150 mM NaCl, 3 mM EDTA, 0.005% P20); room temperature; 1:1 Langmuir model
T2 construct: also called N-His recombinant protein; N-His-tagged recombinant protein; source: recombinant, purified

Binder | kon [1] | koff [2]
B1 | 197000 M⁻¹ s⁻¹ | –
B2 | – | 0.00206 s⁻¹

Reference: publication PMC6745792, “A novel biotinylated nanobody-based blocking ELISA for the rapid and sensitive clinical detection of porcine epidemic diarrhea virus” (Journal of Nanobiotechnology, 2019)
